Reference: patent US11180762B2, “Methods and compositions for the treatment of cancer” (CHILDREN'S MEDICAL CENTER CORPORATION, priority 2014, dated 2021)
Entries after “also recorded” stand apart in the source; their conditions may differ.

What was measured:
[1] = Serum stability, serum species not stated; type: in vitro ADME; details: 2'-fluoropyrimidine AsiC
[2] = tested on: eGFP expression in BPLER and BPE cells; experiment: eGFP knockdown in GFP-expressing BPLER and BPE cells; type: cell-based, human; details: AsiC 4 μM without lipid; siRNA 100 nM with Dharmafect; 72 hours
Procedure: FIG. 21A depicts the design of EpCAM-AsiC, containing an EpCAM aptamer and a PLK1 siRNA (sense strand disclosed as SEQ ID NO: 1 and antisense strand disclosed as SEQ ID NO: 2). […] EpCAM-AsiC targeting GFP was Alexa647 or Cy3 labeled at the 3′ end of the antisense siRNA strand and incubated with BPLER and BPE cells. Uptake was assessed 24 hours later by flow cytometry (FIG. 21C). Data are representative of 3 independent experiments. Cy3 and Alexa647-labeled EpCAM-AsiC was taken up by MB468 and BPLER (EpCAM+ cells) respectively and not by BPE (EpCAM−). MFI of each peak is shown (mock, gray). FIG. 21D depicts graphs of experiments in which, to test for gene silencing, BPLER and BPE were treated with EpCAM-AsiC targeting GFP (4 μM) and compared to Transfection controls using Dharmafect and GFP-siRNA (100 nM). Knockdown was assessed by flow cytometry 72 hours after incubation. Controls were mock and Dhrmafect only treatment (lipid). (n=4).
For uptake and silencing treatment, cells were plated at low density (10,000 cells/well in 96-well plates) and treated immediately. All AsiC and siRNA treatments were performed in either OptiMEM or WIT medium. Cell viability was assessed by CellTiter-Glo (Promega) or by Trypan-Blue staining in 96-well plates.
Cells were transfected with Dharmafect I per the manufacturer's protocol. See FIG. 9 for all siRNA sequences.

breast cancer cell lines = experiment: Colony formation assay; type: cell-based, human; details: AsiC 4 uM, paclitaxel 100 nM
Procedure: For colony formation assay, 1,000 viable cells were treated for 6 h in round bottom 96-well plates and then transferred to 10-cm plates in serum-containing medium. Medium was replaced every 3 d. After 8-14 d, cells were fixed in methanol (−20 C) and stained with crystal violet. For sphere formation assay, 1,000/ml viable cells were treated for 6 h in round bottom 96-well plates and then cultured in suspension in serum-free DMEM/F12 1:1 (Invitrogen), supplemented with EGF (20 ng/ml, BD Biosciences), B27 (1:50, Invitrogen), 0.4% bovine serum albumin (Sigma) and 4 μg/ml insulin (Sigma). Spheres were counted after 1 or 2 weeks.

[3] = tested on: CD44+CD24low/− and ALDH+ cells; experiment: Proportion of cells with T-IC phenotype; type: cell-based, human; details: basal-A and luminal lines; listed as PLK1 EpCAM-AsiCs
[4] = tested on: basal-B TNBC cells (MB436, MB231); experiment: Tumor initiation by ex vivo treated EpCAM− basal-B cells in nude mice; details: cells treated ex vivo overnight, then implanted; listed as PLK1 EpCAM-AsiCs
From the text: EpCAM was chosen for targeting in part because EpCAM marks T-ICs and metastasis-initiating cells (M-IC).^20,22,26,27,31 To investigate whether EpCAM-AsiCs inhibit T-ICs, we compared colony and mammosphere formation (T-IC functional surrogate assays) after mock treatment, treatment with paclitaxel or with EpCAM-AsiCs against eGFP or PLK1. […] T-IC inhibition was specific, since eGFP AsiCs had no effect. […] To evaluate the effect of EpCAM-AsiCs on tumor initiation, EpCAM+MB468 cells stably expressing luciferase were treated overnight with medium or PLK1 or eGFP EpCAM-AsiCs and equal numbers of viable cells were then implanted sc in nude mice. […] Thus PLK1 EpCAM-AsiCs inhibit in vitro T-IC assays and tumor initiation selectively for EpCAM+ breast cancers.
EpCAM-AsiCs inhibit T-ICs of EpCAM+ tumors. EpCAM was chosen for targeting partly because EpCAM marks T-ICs and metastasis-initiating cells (M-IC). To investigate whether EpCAM-AsiCs inhibit T-ICs, we compared colony and mammosphere formation (T-IC functional surrogates) after mock treatment, treatment with paclitaxel or with EpCAM-AsiCs against eGFP or PLK1. […] To evaluate EpCAM-AsiC's effect on tumor initiation, viable luc+ EpCAM+ MB468 and EpCAM− MB231 cells, treated overnight with medium or PLK1 or GFP EpCAM-AsiCs, were implanted sc in nude mice. […] Thus EpCAM-AsiCs inhibit tumor initiation in EpCAM+ breast cancers.

MB231-luc-mCherry tumors = experiment: Tumor inhibition, EpCAM− MB231-luc-mCherry xenograft; type: in vivo, nude mice; details: 5 mg/kg sc every 3 d (72 h) for 2 wks
Procedure: For tumor inhibition studies, MB468-luc (5×10^6) and MB231-luc-mCherry (5×10^5) cells trypsinized with Tryple Express (Invitrogen), resuspended in a 1:1 WIT-Matrigel solution and injected subcutaneously in the flank of 8-week old female Nu/J mice (Stock #002019, Jackson Laboratories). Tumors size was analyzed daily using the IVIS Spectra, after 5 days tumors were clearly visible. […] Mice were treated every 72 h for 14 days.

Argonaute (AGO) = experiment: PLK1 siRNA association with Argonaute (pan-AGO immunoprecipitation, qRT-PCR); type: cell-based, human; details: MDA-MB-468 cells treated 2 days; listed as PLK1 EpCAM-AsiCs
From the text: MB-468 cells, treated with PLK1 EPCAM-AsiC or siRNA for 2 days, were lysed, and cell lysates were immunoprecipitated with pan-AGO antibody or IgG isotype control. The amount of PLK1 siRNA in the immunoprecipitates was quantified by Taqman qRT-PCR, presented as log2 mean with SEM, relative to miR-16. **, P<0.01 by Student's t-test relative to siRNA-treated cells. ND, not detectable. […] This is likely because most RNAs that are taken up by cells are not released from endosomes to the cytosol (A. Wittrup et al., Visualizing lipid-formulated siRNA release from endosomes and target gene knockdown. Nature Biotechnology 2015, in press).
Uptake was clearly detected at 22 hr, but increased greatly after 43 hr. To test whether EpCAM-AsiCs are specifically taken up by EpCAM bright cell lines, the 3′ end of the antisense strand of the AsiC was fluorescently labeled. […] Previous studies have shown that AsiCs are processed within cells by Dicer to release the siRNA from the aptamer (10, 12, 15).

[5] = listed as EpCAM-AsiC targeting PLK1

Molecule	serum T1/2 [1] [h]	eGFP knockdown, BPLER vs BPE [2]	colony formation, EpCAM+ basal-A and luminal lines (breast cancer cell lines; [5])	colony formation, EpCAM− basal-B lines (breast cancer cell lines; [5])	colony formation, EpCAM+ basal-A and luminal lines (breast cancer cell lines; listed as PLK1 EpCAM-AsiCs)	colony formation, EpCAM− basal-B lines (breast cancer cell lines; listed as PLK1 EpCAM-AsiCs)	proportion of cells with T-IC phenotype [3]	tumor initiation, EpCAM− basal-B cells [4]	growth of EpCAM− MB231 tumors (MB231-luc-mCherry tumors; [5])	growth of EpCAM− MB231 tumors (MB231-luc-mCherry tumors; listed as PLK1-targeting AsiCs)	growth of EpCAM− MB231 tumors (MB231-luc-mCherry tumors; listed as PLK1 EpCAM-AsiCs)	PLK1 siRNA bound to Ago / in the RISC (Argonaute (AGO))
EpCAM-AsiC: EpCAM aptamer-siRNA chimera, siRNA cargo not specified at the place; 2'-fluoropyrimidines, 3'-dTdT (nucleic acid, DNA at T, 2'-fluoro at CU, RNA at AG, backbone not given here; further chemistry not fully specified, EpCAM aptamer-siRNA chimera, siRNA cargo not specified at the place; 2'-fluoropyrimidines, 3'-dTdT) sense: GCGACUGGUUACCCGGUCGUUUUGAAGAAGAUCACCCUCCUUATT antisense: UAAGGAGGGUGAUCUUCUUCATT	> 72	uniform and selective for EpCAM+ cells	–	–	–	–	–	–	–	–	–	–
PLK1 EpCAM-AsiC: EpCAM aptamer linked by U-U-U to PLK1 siRNA sense strand (SEQ ID NO: 1), annealed to antisense strand (SEQ ID NO: 2) (nucleic acid, DNA at T, 2'-fluoro at CU, RNA at AG, backbone not given here; EpCAM aptamer fused to sense strand) sense: GCGACUGGUUACCCGGUCGUUUUGAAGAAGAUCACCCUCCUUATT antisense: UAAGGAGGGUGAUCUUCUUCATT	–	–	lost the ability to form colonies; also recorded: only eliminated colony formation in luminal (MCF7) and basal A (HCC1954) cells	did not effect colony formation	more strongly inhibited colony and mammosphere formation of EpCAM+ basal-A TNBCs and luminal cell lines than paclitaxel; also recorded: eliminated mammosphere and colony formation; also recorded: more strongly inhibited colony and mammosphere formation of multiple EpCAM+ basal-like TNBCs and a luminal cell line than paclitaxel	inactive against EpCAM− basal-B TNBCs	reduced the proportion of cells with the phenotype of T-ICs; also recorded: reduced CD44+CD24low and Aldefluor+ cells	had no effect on basal-B TNBC tumor initiation; also recorded: only in EpCAM+ tumors	remained unchanged	continued to grow	had no effect on EpCAM− mesenchymal TNBCs; also recorded: had no effect on EpCAM− basal-B xenografts	PLK1 siRNA immunoprecipitated with Ago; also recorded: PLK1 siRNA was found in the RISC
